# Data published in the supplement of paper PMC9732359.
# ± gives the uncertainty stated by the source.
# Experiment: protein stability index of a GFP-peptide fusion (yeast GPS) (PSI 1-4); higher = more stable; sorted into four equal gates, so the index is relative within each strain
# How it was run: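 The protein stability index combines read frequencies across sorting gates, each weighted by its gate number and then summed. To obtain those frequencies, a pooled yeast library of GFP fusions to tiled 17-residue yeast protein peptides, on a plasmid also expressing Cherry, was grown to mid-log phase in leucine-free medium. The cells were sorted into four equal gates by GFP/Cherry ratio before plasmid amplification by PCR and Illumina sequencing.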
Sequence,protein stability index (doa10∆),protein stability index (ubr1∆),protein stability index (pdr5∆),protein stability index (san1∆)
IDEDIGNNVQENELVIT [RMP1],3.28 ± 0.17,3.39 ± 0.16,–,–
IDESMPDTAIDSQMDEA [GRR1],3.01 ± 0.093,3.06 ± 0.059,3.08 ± 0.08,2.85 ± 0.078
IDIDKLIQLGVKPLESS [SRP72],3.19 ± 0.086,2.82 ± 0.054,2.87 ± 0.068,3.04 ± 0.055
IDPDTKAPNAVVITFEK [RPB11],–,2.93 ± 0.15,3.22 ± 0.17,3.09 ± 0.094
IDVMKSQIIPLMKKACY [SNU114],2.23 ± 0.094,2.08 ± 0.05,2 ± 0.051,2.77 ± 0.047
IDVNLNFARQLLFNNDF [RRP40],2.93 ± 0.064,1.82 ± 0.05,1.56 ± 0.057,1.36 ± 0.13
IEDKENSESTTQGGNVN [RPT5],3.59 ± 0.14,3.6 ± 0.11,3.31 ± 0.14,3.46 ± 0.17
IEELDNPMVPSSVNEDT [PRP8],3.26 ± 0.075,3.26 ± 0.049,3.22 ± 0.065,3.33 ± 0.053
IEGVVILKKNPDYREEE [RPN1],3.06 ± 0.08,3.1 ± 0.062,3.09 ± 0.09,3.1 ± 0.075
IEHPMTSAIEVLVGSCA [RPN1],1.94 ± 0.043,1.82 ± 0.046,1.81 ± 0.042,2.14 ± 0.057
IEIKISDPLTVFSESCS [SNU114],2.33 ± 0.071,2.45 ± 0.06,2.55 ± 0.073,2.42 ± 0.052
IEINEDNSQDDQDRGAA [RRI2],3.24 ± 0.18,3.04 ± 0.11,3.28 ± 0.23,3.12 ± 0.12
IEKARVEAQSHRLTLED [PRE6],–,3.26 ± 0.15,–,–
IELLCGLGKSAVNWQDK [NAS6],–,–,–,3.75 ± 0.086
IELLSDLINILEKKGFS [LIN1],1.22 ± 0.075,1.35 ± 0.062,1.43 ± 0.082,1.28 ± 0.17
IELNFDAVKDFKLGKFN [QCR2],3.31 ± 0.26,3.71 ± 0.25,2.69 ± 0.17,3.31 ± 0.093
IEPELFNGYNPEKKEMI [FAS2],3.18 ± 0.095,3.43 ± 0.14,3.25 ± 0.13,3.33 ± 0.092
IERIGHLLSINYGEKEE [PCI8],1.32 ± 0.06,1.18 ± 0.049,1.33 ± 0.055,1.2 ± 0.092
IFLAERRILPKPSRTSR [RPS7A],–,2.89 ± 0.13,3.15 ± 0.21,2.8 ± 0.14
IGAELKREESESAAVYN [SNF2],2.99 ± 0.087,3.21 ± 0.071,3.08 ± 0.091,2.84 ± 0.071
IGAGVPSLEVASEYIET [FAS1],3.38 ± 0.15,–,3.12 ± 0.18,2.18 ± 0.23
IGARSQGAKTYLERTLD [PRE5],3.36 ± 0.13,3.22 ± 0.066,3.34 ± 0.069,3.23 ± 0.07
IGDDGYDLLISTLTTIS [SRB5],2.18 ± 0.054,2.2 ± 0.061,2.1 ± 0.058,1.52 ± 0.085
IGGLLSKVREEVGDVCI [RPO31],2.13 ± 0.1,2.79 ± 0.11,1.86 ± 0.067,2.11 ± 0.11
IGIVDYEAGASHGNPVV [FAS1],3.01 ± 0.068,3.19 ± 0.04,2.99 ± 0.064,3.03 ± 0.063
IGQSEELSDKEIYTVED [ISW2],3.35 ± 0.13,3.44 ± 0.13,3.46 ± 0.14,3.31 ± 0.17
IGTADIFIRQLKENEEN [BRR2],3.61 ± 0.12,1.36 ± 0.1,3.1 ± 0.3,–

Sequence,protein stability index (doa10∆),protein stability index (ubr1∆),protein stability index (pdr5∆),protein stability index (san1∆)
IGVIQLAHYVVTAKLLG [FAS1],1.51 ± 0.066,1.35 ± 0.053,1.23 ± 0.04,1.24 ± 0.09
IGWCKEDPKRRADTMDF [YJL039C/NUP192],3.16 ± 0.21,3.39 ± 0.12,3.56 ± 0.11,3.47 ± 0.13
IHKRYIDLEAPVQIVKR [RPS20],2.5 ± 0.13,2.96 ± 0.12,2.78 ± 0.15,2.51 ± 0.14
IHLKQKLSESLDTRKEL [SMC3],–,3.49 ± 0.15,3.03 ± 0.24,3.4 ± 0.18
IHTQLSEIKQQINKAQI [YJL039C/NUP192],2.73 ± 0.12,3.12 ± 0.2,2.8 ± 0.18,2.81 ± 0.13
IIERYIKSKADAWVSAA [PRP8],1.86 ± 0.082,2.09 ± 0.12,1.88 ± 0.072,2.39 ± 0.11
IIGHNPDENKTRVRLPS [RPL2A],2.93 ± 0.074,3 ± 0.048,3.09 ± 0.077,2.93 ± 0.046
IIKRSNGQSLSPVRSDS [YMR153W/NUP53],2.64 ± 0.093,2.81 ± 0.037,2.87 ± 0.058,2.76 ± 0.064
IITKNENFLKEVFQLRI [GAL11],1.56 ± 0.091,1.26 ± 0.062,1.54 ± 0.067,1.54 ± 0.11
IITNINAIFLSSEQDYS [YCG1],2.54 ± 0.078,2.89 ± 0.098,2.58 ± 0.13,1.58 ± 0.22
IIVKDKSNDSEGDFLKS [POP1],3.06 ± 0.3,–,–,3.14 ± 0.11
IKAFMDSTIGNSKVDMK [IRR1],2.57 ± 0.27,2.05 ± 0.19,2.45 ± 0.16,–
IKDTANDNDITVKENES [UBP6],2.88 ± 0.1,1.41 ± 0.047,2.45 ± 0.071,1.85 ± 0.075
IKEDIEKFDLERVTALK [SMC1],3.63 ± 0.21,–,–,3.41 ± 0.1
IKEKFDEFIKTHEDLPK [IRR1],2.7 ± 0.1,3.01 ± 0.071,2.68 ± 0.095,2.62 ± 0.065
IKELRSKGYPIQFLTIG [FAS1],1.87 ± 0.11,1.68 ± 0.071,2.22 ± 0.068,1.43 ± 0.096
IKESSKKIKGKSIQDIV [SRP21],3.26 ± 0.077,3.14 ± 0.12,3.31 ± 0.092,3.33 ± 0.046
IKGIREYEEWQKSVSLL [YDL116W/NUP84],2.08 ± 0.14,2.55 ± 0.095,2.66 ± 0.12,2.5 ± 0.17
IKGNGESDETTTDNNNS [RPT1],3.15 ± 0.15,3.53 ± 0.11,–,3.38 ± 0.04
IKIEDFVDDMLRDYRFE [SNF5],3 ± 0.068,2.97 ± 0.078,3.16 ± 0.073,3.1 ± 0.067
IKILGSEGYQKTFSRLD [RPN4],1.28 ± 0.089,–,1.55 ± 0.15,1.05 ± 0.24
IKKMLHLVWMKGTNDEG [YCS4],3.17 ± 0.2,3.33 ± 0.18,3.51 ± 0.11,3.19 ± 0.16
IKLGSTAIGIATKEGVV [PUP2],1.54 ± 0.11,1.32 ± 0.11,1.63 ± 0.18,1.34 ± 0.26
IKNGRIYFTVPNEFEIQ [RGR1],2.62 ± 0.06,2.57 ± 0.043,2.49 ± 0.045,2.45 ± 0.049
IKNIGKSLKNNFYRPLL [YML103C/NUP188],2.6 ± 0.08,2.77 ± 0.078,2.62 ± 0.1,2.7 ± 0.079
IKQTFKNDLFVIWSEDN [RPO21],2.13 ± 0.057,2.36 ± 0.056,2.32 ± 0.063,2.31 ± 0.058
